Test results reported in patent US20240182547A1 (MOGAM INSTITUTE FOR BIOMEDICAL RESEARCH, published 2024).

Biological target: DS-Cav1 (RSV F-protein, pre-form, in-house) (respiratory syncytial virus (RSV), UniProt P03420 26-513)
Test: ELISA, coated DS-Cav1, IgG titrated

DS-Cav1 (RSV F-protein, pre-form, in-house), sequence (P03420 26-524): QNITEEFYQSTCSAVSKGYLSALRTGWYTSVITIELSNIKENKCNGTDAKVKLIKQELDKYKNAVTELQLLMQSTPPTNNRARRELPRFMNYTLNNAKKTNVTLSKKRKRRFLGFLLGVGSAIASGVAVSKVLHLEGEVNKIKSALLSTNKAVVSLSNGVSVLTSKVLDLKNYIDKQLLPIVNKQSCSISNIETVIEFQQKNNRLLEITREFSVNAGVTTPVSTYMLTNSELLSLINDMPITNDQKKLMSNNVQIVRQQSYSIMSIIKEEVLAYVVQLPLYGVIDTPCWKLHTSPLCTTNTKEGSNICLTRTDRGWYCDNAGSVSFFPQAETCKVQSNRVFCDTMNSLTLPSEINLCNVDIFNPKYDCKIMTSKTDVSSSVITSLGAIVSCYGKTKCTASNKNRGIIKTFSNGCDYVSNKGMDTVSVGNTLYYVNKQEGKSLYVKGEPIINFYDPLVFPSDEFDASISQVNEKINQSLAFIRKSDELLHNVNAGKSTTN

Row | Binder | Kd
1 | 5C9 (antibody, V domains shown, IgG made in Expi293; also called #61; 61) VH: QVQLVQSGSEVKKPGASVKVSCKASGYTFGHYGISWVRQAPGQGLEWMAWISAYNGNTDSIQKVQGRVTMTTDTSTNTAYLELRSLRSDDTAVYYCVRDVPATGGAATADYWGQGTTVTVSS VL: DVVMTQSPLSLPVTLGQPASISCRSSQSLVFSDGNTYLSWFQQRPGQSPRRLIYKVSNRDSGVPDRFSASGSGTDFTLKISRVEADDVGVYYCMQVTHWPRTFGQGTKLEIKR | ~0.8 nM
2 | 8A11 (antibody, V domains shown, IgG made in Expi293; also called #63; 63) VH: QVQLVQSGSEVKKPGASVKVSCKASGYTFGHYGISWVRQAPGQGLEWMAWISAYNGNTDSIQKVQGRVTMTTDTSTNTAYLELRSLRSDDTAVYYCVRDVPATGGAATADYWGQGTLVTVSS VL: DVVMTQSPLSLPVTLGQPASISCKSSRSLVHSDGNTYLSWFQQRPGQSPRRLIYKVSNRDSGVPDRFSASGSGTDFTLKISRVEADDVGVYYCMQVTHWPRTFGQGTKLEIKR | ~0.69 nM
3 | #62m (antibody, V domains shown, Germline-edited (m) form of 5C7, heavy chain edited; IgG; also called 5C7 (modified)) VH: QVQLVQSGAEVKKPGASVKVSCKASGYTFGHYGISWVRQAPGQGLEWMAWISAYNGNTDSIQKVQGRVTMTTDTSTNTAYLELRSLRSDDTAVYYCVRDVPATGGAATADYWGQGTLVTVSS VL: DVVMTQSPLSLPVPLGQPASISCRSSQSLVHSDGNTYLSWFQQRPGQSPRRLIYKVSDRDSGVPDRFSGSGSGTDFTLKISRVEAEDVGVYYCMQVTHWPRTFGQGTRLEIKR | ~1.27 nM
4 | 5C7 (antibody, V domains shown, IgG made in Expi293; also called #62; 62) VH: QVQLQQSGSEVKKPGASVKVSCKASGYTFGHYGISWVRQAPGQGLEWMAWISAYNGNTDSIQKVQGRVTMTTDTSTNTAYLELRSLRSDDTAVYYCVRDVPATGGAATADYWGQGTLVTVSS VL: DVVMTQSPLSLPVPLGQPASISCRSSQSLVHSDGNTYLSWFQQRPGQSPRRLIYKVSDRDSGVPDRFSGSGSGTDFTLKISRVEAEDVGVYYCMQVTHWPRTFGQGTRLEIKR | ~0.84 nM
5 | D25 (antibody, V domains shown) VH: QVQLVQSGAEVKKPGSSVMVSCQASGGPLRNYIINWLRQAPGQGPEWMGGIIPVLGTVHYAPKFQGRVTITADESTDTAYIHLISLRSEDTAMYYCATETALVVSTTYLPHYFDNWGQGTLVTVSS VL: DIQMTQSPSSLSAAVGDRVTITCQASQDIVNYLNWYQQKPGKAPKLLIYVASNLETGVPSRFSGSGSGTDFSLTISSLQPEDVATYYCQQYDNLPLTFGGGTKVEIK | ~0.73 nM
6 | #6m (antibody, V domains shown, Germline-edited (m) form of 2E7, light chain edited; IgG; also called 2E7 (modified)) VH: EVQLVESGGGLVKPGGSLRLSCAGSGFTFSSYTMHWVRQAPGKGLEWVSSITGGSSYVDYSASVKGRFTISRDNAQSSLYLQMNSLRAEDTAVYYCARDDYGSGSYSNWFDPWGQGTLVTVSS VL: QSVLTQPPSASGTPGQRVTISCTGSSSNIGAGYDVHWYQQLPGAAPRLLMFGNSNRPSGVPDRFSGSKSGTSASLAITGLQADDEADYYCQSYDRSLSHVFGTGTKVTVLG | ~2.34 nM
7 | 2H2 (antibody, V domains shown, IgG made in Expi293; also called #7) VH: QVQLVQSGGGLIQPGGSLRLSCAGSGFTFSSYTMHWVRQAPGKGLEWVSSITGGSSYVDYSASVKGRFTISRDNAQSSLYLQMNSLRAEDTAVYYCARDDYGSGSYSNWFDPWGQGTLVTVSS VL: QSVLTQPPSVSGAPGQRVTISCTGSSSNIGAGYDVHWYQQLPGTAPKLLIFANTNRPSGVPDRFSGSKSGASASLAITGLQADDEADYYCQSYDRSLSHVFGTGTKVTVLG | ~0.44 nM
8 | 12A1 (antibody, V domains shown, IgG made in Expi293; also called #8) VH: EVQLVESGGGLIQPGGSLRLSCAGSGFTFSSYTMHWVRQAPGKGLEWVSSITGGSSYVDYSASVKGRFTISRDNAQSSLYLQMNSLRAEDTAVYYCARDDYGSGSYSNWFDPWGQGTLVTVSS VL: QSVLTQPPSVSGAPGQRVTISCTGSSSDIGAGYDVHWYQQLPGTAPKLLIFANTNRPSGVPDRFSGSKSGASASLAITGLQADDEADYYCQSYDRSLSHVFGTGTKVTVLG | ~1.66 nM
